Reference: patent publication US20090305971A1 (YALE UNIVERSITY, published 2009)

B1: AP-Am-Nogo-B (alkaline phosphatase fusion protein with residues 1-200 at the amino terminus of human Nogo-B) (ligand, UniProt Q9NQC3-2 1-200, looked up)
chain: MEDLDQSPLVSSSDSPPRPQPAFKYQFVREPEDEEEEEEEEEEDEDEDLEELEVLERKPAAGLSAAPVPTAPAAGAPLMDFGNDFVPPAPRGPLPAAPPVAPERQPSWDPSPVSSTVPAPSPLSAAAVSPSKLPEDDEPPARPPPPPPASVSPQAEPVWTPPAPAPAAPPSTPAAPKRRGSSGSVVVDLLYWRDIKKTGV
notes: range 1-200; also called full-length AP-Am-Nogo-B; APNogo200; not shown: placental alkaline phosphatase coding region of vector pcAP-5
B2: mFc-ecto (Fc fusion of amino acids 52-116 of NgBR, HA- and heptahistidine-tagged) (Fc fusion)
chain: LGFTLRKPPAVGRNRRHHRHPRGGSCLAAAHHRMRWRADGRSLEKLPVHMGLVITEVEQEPSFSD
notes: Purified from conditioned media of mammalian cells; also called mFc fusion with the NgBR domain; mFc-NgBR-ectodomain; not shown: mFc, the Fc fragment of IgG; HA tag; heptahistidine tag
B3: AP-Nogo-B (amino acids 1-180) (ligand, UniProt Q9NQC3-2 1-180, looked up)
chain: MEDLDQSPLVSSSDSPPRPQPAFKYQFVREPEDEEEEEEEEEEDEDEDLEELEVLERKPAAGLSAAPVPTAPAAGAPLMDFGNDFVPPAPRGPLPAAPPVAPERQPSWDPSPVSSTVPAPSPLSAAAVSPSKLPEDDEPPARPPPPPPASVSPQAEPVWTPPAPAPAAPPSTPAAPKRRG
notes: range 1-180; Construction not described; also called AP-Nogo-B (1-180); not shown: alkaline phosphatase part of the AP fusion
B4: AP-Nogo-A (59-172) (ligand, UniProt Q9NQC3 59-172, looked up)
chain: PAAGLSAAPVPTAPAAGAPLMDFGNDFVPPAPRGPLPAAPPVAPERQPSWDPSPVSSTVPAPSPLSAAAVSPSKLPEDDEPPARPPPPPPASVSPQAEPVWTPPAPAPAAPPST
notes: also called AP-Am-Nogo-A domains; not shown: alkaline phosphatase part of the AP fusion
B5: Nogo-B receptor (NgBR), endogenous, on human umbilical vein endothelial cells (HUVEC) (receptor)
chain: SWLRVRFGTWNWIWRRCCRAASAAVLAPLGFTLRKPPAVGRNRRHHRHPRGGSCLAAAHHRMRWRADGRSLEKLPVHMGLVITEVEQEPSFSDIASLVVWCMAVGISYISVYDHQGIFKRNNSRLMDEILKQQQELLGLDCSKYSPEFANSNDKDDQVLNCHLAVKVLSPEDGKADIVRAAQDFCQLVAQKQKRPTDLDVDTLASLLSSNGCPDPDLVLKFGPVDSTLGFLPWHIRLTEIVSLPSHLNISYEDFFSALRQYAACEQRLGK
notes: The assays were done on untransfected HUVEC; also called native HUVEC; endogenous NgBR
B6: human Nogo-B receptor (NgBR), expressed from the cloned cDNA on transfected COS-7 or CHO cells (receptor)
chain: B5 chain
notes: also called Am-Nogo receptor; Am-NgR

Experiments:
[1] = molecular target: B6; experiment: AP-fusion binding to CHO cells transiently transfected with NgBR cDNA, Scatchard plot (FIG. 7)
Experimental: (§1) To detect AP-Am-Nogo-B binding, cultures were washed with Hanks' balanced salt solution (HBSS) containing 20 mM HEPES, pH 7.5, and 1 mg/mL BSA (HBH). The plates were then incubated with AP-Am-Nogo-B in DMEM containing 20 mM Hepes, pH 7.5, and 1 mg/mL BSA for 2 hours at 4° C. The bound AP-Am-Nogo-B was detected by using the Blue Substrate kit (Vector Laboratories). The blue staining was examined by using the ODYSSEY Infrared Imaging System (Li-Cor, Lincoln, Nebr.) and confirmed by microscopy. Alternatively, the bound AP-Am-Nogo-B was extracted with Triton X-100, and AP activity was colorimetrically quantified by using p-nitrophenyl phosphate (Sigma) as substrate after heat inactivation of endogenous AP. Non-specific binding was determined by measuring binding in the presence of a 100-fold molar excess of recombinant Am-Nogo-B lacking the AP fusion protein. Specific binding was determined by subtracting the non-specific binding from total binding. For determination of apparent Kd, the binding of AP-Am-Nogo-B was measured in triplicate as described above and the Kd value was quantified by using the Scatchard plot program of GraphPad PRISM (one-site binding, linear regression) using the ratio of bound ligand to free ligand as the y axis and bound ligand (pM) as the x axis.

[2] = molecular target: B5; experiment: AP-fusion binding to HUVEC at 4 C, AP activity read-out, Scatchard plot (FIGS. 4 and 5)
Experimental: as §1

[3] = molecular target: B1; experiment: blocking of AP-Am-Nogo-B binding to endothelial cells (FIG. 34)
[4] = molecular target: B6; experiment: surface binding of AP proteins to CHO cells expressing NgBR (FIG. 11)
[5] = molecular target: B5; experiment: surface binding of AP proteins to HUVEC (FIG. 12)
[6] = molecular target: B5; experiment: surface binding of AP proteins to HUVEC (FIG. 15)
[7] = molecular target: B6; experiment: surface binding of AP proteins to CHO cells expressing NgBR (FIG. 14)
[8] = molecular target: T1, AP (recombinant alkaline phosphatase alone) (UniProt P05187 23-511); experiment: surface binding of AP proteins to HUVEC (FIG. 12)
T1 construct: Control protein without a Nogo part; also called AP alone
T1 sequence (P05187 23-511): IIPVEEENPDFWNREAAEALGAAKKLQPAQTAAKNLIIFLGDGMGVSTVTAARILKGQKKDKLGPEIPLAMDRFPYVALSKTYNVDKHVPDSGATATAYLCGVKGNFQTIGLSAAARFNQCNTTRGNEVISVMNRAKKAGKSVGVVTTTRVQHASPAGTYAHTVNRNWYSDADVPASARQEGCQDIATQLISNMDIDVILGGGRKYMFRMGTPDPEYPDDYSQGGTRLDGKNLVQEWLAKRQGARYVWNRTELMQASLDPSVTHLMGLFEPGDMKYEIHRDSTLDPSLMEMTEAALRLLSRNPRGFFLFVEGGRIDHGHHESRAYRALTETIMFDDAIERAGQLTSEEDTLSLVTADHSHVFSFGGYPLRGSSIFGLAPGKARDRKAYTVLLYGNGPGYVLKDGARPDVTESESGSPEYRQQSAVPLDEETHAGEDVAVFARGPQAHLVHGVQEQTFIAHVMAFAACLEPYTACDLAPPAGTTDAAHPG

[9] = molecular target: T1, AP (recombinant alkaline phosphatase …); experiment: AP-fusion binding to COS cells transfected with the NgBR cDNA, AP staining (FIG. 6)
Experimental: as §1, with “axis. […]” for “axis.”

Binder: B1
Kd [1]: 2.74 nM
Kd [2]: 9.7 nM

Binder: B2
binding result [3]: binds

Binder: B3
binding result [4]: no binding
binding result [5]: no binding

Binder: B4
binding result [6]: no binding
binding result [7]: no binding

Binder: B5
binding result [8]: no binding

Binder: B6
binding result [9]: no binding
